Measured values taken from US20260265396A1 (BIOARCTIC, published 2026).
Values belong to the binder of their own block, whether it stands above or below them.

Columns and labels:
[1] = molecular target: T1, chimeric TfR1 consisting of human apical domain grafted on mouse TfR1 ectodomain (SEQ ID NO:57) (human/mouse chimera); assay: indirect ELISA, plate coated with 1 ug/ml h/m apical domain chimera (axis labelled TfR (ng/ml)) [C]
T1 construct: His-tagged ELISA coat; also called h/m apical domain chimera
T1 chain: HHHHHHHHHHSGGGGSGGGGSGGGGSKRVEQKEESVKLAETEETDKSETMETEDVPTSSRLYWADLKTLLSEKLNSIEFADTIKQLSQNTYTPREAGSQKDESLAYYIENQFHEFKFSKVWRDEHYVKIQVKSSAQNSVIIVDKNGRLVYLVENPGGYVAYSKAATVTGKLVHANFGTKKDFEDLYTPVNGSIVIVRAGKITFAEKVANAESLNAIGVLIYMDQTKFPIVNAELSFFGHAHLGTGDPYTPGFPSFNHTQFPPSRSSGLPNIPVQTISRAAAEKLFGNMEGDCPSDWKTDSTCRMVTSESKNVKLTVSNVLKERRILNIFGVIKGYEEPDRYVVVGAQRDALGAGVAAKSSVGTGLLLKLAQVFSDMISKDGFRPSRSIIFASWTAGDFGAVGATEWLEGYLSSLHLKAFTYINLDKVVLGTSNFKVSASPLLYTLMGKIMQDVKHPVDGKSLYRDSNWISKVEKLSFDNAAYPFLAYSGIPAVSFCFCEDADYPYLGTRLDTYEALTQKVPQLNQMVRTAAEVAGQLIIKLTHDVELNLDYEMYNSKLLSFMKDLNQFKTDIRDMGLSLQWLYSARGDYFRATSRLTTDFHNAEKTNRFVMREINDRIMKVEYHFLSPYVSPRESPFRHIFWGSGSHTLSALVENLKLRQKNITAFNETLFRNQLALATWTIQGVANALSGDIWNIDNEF
Procedure: The coated plates were then blocked. Dilution series of mouse IgG of the analyzed antibodies were prepared in PBS and incubated on the ELISA plates. Unbound antibodies were then washed off before incubating wells with a HRP-conjugated secondary, anti-mouse-IgG for 1 h. Plates were then washed again before addition of HRP substrate TMB for development and detection of antibody binding to the wells. TMB development was stopped by adding 0.5 M H₂SO₄ to the wells and ELISA responses measured as the OD at 450 nm in an ELISA plate reader.

[2] = molecular target: T2, human TfR1, recombinant, construct not stated for the experiment (human, UniProt P02786 89-760, limits assumed); assay: indirect ELISA, plate coated with 1 ug/ml recombinant hTfR1 ectodomain, Fab 1:3 dilution series, anti-human IgG F(ab')2-HRP [lower panel hTfR1]
T2 construct: Biotinylated in the binning and scFv-Fc BLI experiments; also called hTfR1; biotinylated hTfR1
T2 sequence (P02786 89-760 limits assumed): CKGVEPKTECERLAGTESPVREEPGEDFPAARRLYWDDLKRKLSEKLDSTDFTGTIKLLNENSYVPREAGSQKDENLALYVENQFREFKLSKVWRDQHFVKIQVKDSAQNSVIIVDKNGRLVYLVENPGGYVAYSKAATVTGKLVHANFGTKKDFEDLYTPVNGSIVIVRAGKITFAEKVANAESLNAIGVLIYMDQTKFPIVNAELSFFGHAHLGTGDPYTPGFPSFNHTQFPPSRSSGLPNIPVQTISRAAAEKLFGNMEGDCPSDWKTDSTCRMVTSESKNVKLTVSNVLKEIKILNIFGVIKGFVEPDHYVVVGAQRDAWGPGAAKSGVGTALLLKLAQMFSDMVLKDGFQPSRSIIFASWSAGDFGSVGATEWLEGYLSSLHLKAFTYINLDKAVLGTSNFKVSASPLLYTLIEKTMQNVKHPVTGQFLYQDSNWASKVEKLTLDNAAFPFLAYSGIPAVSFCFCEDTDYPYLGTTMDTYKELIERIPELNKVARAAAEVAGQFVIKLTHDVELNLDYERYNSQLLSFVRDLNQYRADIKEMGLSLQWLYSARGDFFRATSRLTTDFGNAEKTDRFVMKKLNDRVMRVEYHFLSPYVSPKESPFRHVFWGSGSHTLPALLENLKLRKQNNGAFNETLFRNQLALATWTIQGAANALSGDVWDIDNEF

binding result [1]: no binding (tested: about 650 ng/ml)
B1: mouse monoclonal antibody 26D3 (antibody, mouse IgG2a, V domains shown)
VH: EVQLQQFGVELVKPGASVKISCKASGYIFTDYNMDWVKQSHGKSLEWIGDINPDYDTTSYNEKFKGKATLTVDKSSSTAYMELRSLTSEDTAVYYCARGGYSGSSYYHPMDYWGQGTSVTVSS
VL: DIVMSQSPSSLAVSVGEKITMSCKSSQSLLYSTNQKNYLAWYQQKPGQSPELLIYWASTRESGVPDRFTGSGSGTDFTLTISNVRAEDLAVYYCQQYFIYPRTFGGGTKLEIK

EC50 (read off the curve) [2]: ~500 nM
B2: h26D3 Fab (humanized 26D3) (Fab, V domains shown)
VH: EVQLVQSGAEVKKPGSSVKVSCKASGYIFTDYNMDWVRQAPGQGLEWIGDINPDYDTTSYNEKFKGRATLTVDKSTSTAYMELSSLRSEDTAVYYCARGGYSGSSYYHPMDYWGQGTLVTVSS
VL: DIQMTQSPSSVSASVGDRVTITCKSSQSLLYSTNQKNYLAWYQQKPGKAPKLLIYWASTRESGVPSRFSGSGSGTDFTLTISSLQPEDFATYYCQQYFIYPRTFGQGTKVEIK
notes: His-tagged Fab from ExpiCHO cells
